Patent US20210381002A1 (CORNELL UNIVERSITY, published 2021)

Experiments:
[1] = biological target: the molecule itself; assay: Sephacryl size exclusion column fractions, anti-HA Western (self-association, tetramer formation)
Procedure: FIGS. 6A-B. Modified SOD3 construct. A) Secretion of the modified SOD3 constructs. Western (anti-HA tag) of supernatant of 293T cells transfected with: lane 1—mock; lane 2—unmodified HA tagged SOD3; lane 3—SOD3hd⁻. Only SOD3hd⁻ is in the supernatant. […] Approximate MW are calculated from column specifications.
Two modifications were made in a single SOD3 variant (hSOD3hd⁻), including a deletion of residues 50-59 replaced with an in frame copy of the residue segment from 74-80, and a deletion of residues 212-240, the heparin-binding domain. […] Intravenous administration to Balb/c mice led to vector DNA in liver and lung (liver 50-fold higher) and SOD activity in serum (FIG. 7D-F). LEX 5c, LEX 5d. Based on the in vitro and in vivo functional data of LEX 5a and LEX 5b, LEX 5c and LEX 5d were generated to express both catalase and SOD3 modified monomers. Based on expressing 2 genes in 1 AAV construct (De et al., 2008; Wang et al., 2010; Watanabe et al., 2010; Mao et al., 2011; Rosenberg et al., 2012; Hicks et al., 2012; Xie et al., 2014; Hicks et al., 2015; Pagovich et al., 2016; Liu et al., 2016), both […] use a single promoter, with the 2 modified cDNA separated by a furin 2A cleavage site which directs cleavage of the resulting precursor protein to generate the 2 function proteins. […]

[2] = biological target: the molecule itself; assay: Bis-Tris gel of 293T supernatant (self-association, tetramer formation)
Procedure: FIG. 14. Assessment of supernatants of catalase constructs for monomeric and multimeric catalase separation. Samples were assessed on Bis-Tris gel, blotted and probed with anti-catalase antibody (ABCAM: ab88067); predicted band sizes, 60 kDa for monomer and 240 kDa for tetramer, aAll 3 constructs secreted only the monomeric construct.
Three modifications of the human catalase sequence were assessed: hCatNT⁻, hCatWL⁻ and hCatNT⁻WL⁻. […] However, of the 3 constructs, only the wrapping loop domain deletion (hCatWD⁻) retained catalase activity (FIG. 5B). […] Intravenous administration to mice led to detection of hCatWD⁻ DNA in the liver and lung (typical for AAVrh.10 vectors) (Chiuchiolo et al., 2013), and importantly, easily detectable human catalase activity in serum, e.g., LEX 5a generates a secreted, functional catalase monomer (FIG. 7A-C).

Protein	binding result [1]	binding result [2]
modified human superoxide dismutase 3 (hSOD3hd^-): residues 50-59 replaced with a copy of 74-80, and heparin-binding domain residues 212-240 deleted (enzyme, also called expression product of LEX 5b; not shown: Hemagglutinin (HA) tag used for detection with anti-HA) WTGEDSAEPNSDSAEWIRDMYAKVTEIWQEVATLDAAQHAACQVQPSATLDAAQPRVTGVVLFRQLAPRAKLDAFFALEGFPTEPNSSSRAIHVHQFGDLSQGCESTGPHYNPLAVPHPQHPGDFGNFAVRDGSLWRYRAGLAASLAGPHSIVGRAVVVHAGEDDLGRGGNQASVENGNAGRRLACCVVG	no binding	–
human catalase monomer with a 20 amino acid deletion from the wrapping loop domain (hCatWL^-) (enzyme, also called hCatWD^-) ADSRDPASDQMQHWKEQRAAQKADVLTTGAGNPVGDKLNVITVGPRGPLLVQDVVFTDEMAHFDRERIPERVVHAKGAGAFGYFEVTHDITKYSKAKVFEHIGKKTPIAVRFSTVAGESGSADTVRDPRGFAVKFYTEDGNWDLVGNNTPIFFIRDPILFPSFIHSQKRNPQTHLKDPDMVWDFWSLRPESLHQVSFLFSDRGIPDGHRHMNGYGSHTFKLVNANGEAVYCKFHYKTDQGIKNLSVEDAARLSQEDPDYGIRDLFNAIATGKYPSWTFYIQVMTFNQAETFPFNPFDLTKVWPHKDYPLIPVGKLVLNRNPVNYFAEVEQIAFDPSNMPPGIEASPDKMLQGRLFAYPDTHRHRLGPNYLHIPVNCPYRAPNYYPNSFGAPEQQPSALEHSIQYSGEVRRFNTANDDNVTQVRAFYVNVLNEEQRKRLCENIAGHLKDAQIFIQKKAVKNFTEVHPDYGSHIQALLDKYNAEKPKNAIHTFVQSGSHLAAREKANLYPYDVPDYA	–	no binding
